Drawing on article PMC4479010, this text covers percent of expressed monomers polymerized to oligomers above the dimer for one substance.

The target of the test is GFP monomer (GFP 11 linked to the N terminus of GFP 1–10), net charge −3 [GFP: P42212]. In words: PAGE with 0.1% SDS + SEC; GFP oligomer mixture; SEC on Superdex 200 10/300 GL, 0.5 ml/min, 500 mM NaCl, 50 mM Tris pH 8.0 or PBS.

As to “GFP monomer (GFP 11 linked to the N terminus of GFP 1–10), net charge −3 (from UniProt P42212 215-230; P42212 1-214) (designed binder)”, the percent of expressed monomers polymerized to oligomers above the dimer turned out to be 50%.
